Experimental data from patent publication US12037382 (STICHTING VU, dated 2024).

What was measured:
[1] = molecular target: T1, US28 wild type, G protein-coupled receptor of human cytomegalovirus strain VHL/E (human cytomegalovirus strain VHL/E); assay: competition of unlabeled CX3CL1 against 125I-CX3CL1 on US28
T1 construct: whole, on cells; In some assays membranes of transfected cells were used; also called US28-WT; US28 VHL/E

[2] = molecular target: T1, US28 wild type, G protein-coupled …; assay: displacement of 125I-CX3CL1 from US28-expressing HEK293T membranes by unlabeled CX3CL1

B1: human chemokine CX3CL1 (ligand, UniProt P78423 25-100, looked up)
chain: QHHGVTKCNITCSKMTSKIPVALLIHYQQNQASCGKRAIILETRQHRLFCADPKEQWVKDAMQHLDRQAAALTRNG
modifications: 125I label where used as radioligand
notes: also called CX3CL1/Fractalkine
IC50 (read off the curve) [1]: ~100 pM | IC50 (read off the curve) [2]: ~300 pM
